Measurements: patent US20230374151A1 (GlaxoSmithKline, published 2023)
Where “and” joins values, the source holds several entries; their conditions need not be identical. Equal entries are not always repeated.

How the values were obtained:
[1] = biological target: T1, STnMUC1 peptide, biotinylated; assay: SPR (Biacore T200), STnMUC1 peptide on CAP chip, scFv as analyte
T1 construct: also called STn peptide; 35-1
Protocol: (§1) The CAP chip (from the Biotin CAPture kit) was docked into BIAcore T200 instrument to hydrate overnight, as per manufacturer instructions. When the chip is docked (for the first time or after storage), the surface of the sensor chip needs to be conditioned with 3×1 minute injections of Regeneration Solution (from the Biotin CAPture kit). Regeneration Solution was prepared by mixing 3 parts of Regeneration Stock 1 (8M Guanidine-HCl) with 1-part Regeneration Stock 2 (1M NaOH). Both the reference and active flow cells of the sensor chip were conditioned with 3×60 second injections of Regeneration Solution at a flow rate of 10 μl/min.
(§2) Biotin CAPture Reagent was captured onto the active and reference flow cells for 300 seconds at 2 μl/min. The biotinylated peptides were diluted in BIAcore Running Buffer (as described above) and captured onto the active flow cell only, at a flow rate of 10 μl/min to obtain the capture level calculated in the equation detailed above.

[2] = biological target: T2, TnMUC1 peptide (fully glycosylated), biotinylated; assay: SPR (Biacore T200), peptide 36-2 on CAP chip, scFv as analyte, 1:1 fit; average
T2 construct: Two batches (36-2 and 65-1) of the same peptide; also called 36-2; 7-36-2
Protocol: as §2
(§3) The humanised anti-TnMUC1 scFv proteins were passed over the reference and active flow cells at 500, 125, 31.25, 7.8, 1.9, 0 nM for binding to TnMUC1 and MUC1 peptides with a 300 second association followed by a 900 seconds dissociation with BIAcore Running Buffer at a flow rate of 30 μl/min.
(§4) BIAcore T200 Evaluation Software v3.0 was used to analyse the data. The data obtained has been fitted to a 1:1 binding model with the Rmax parameter set to local. As this is a capture experiment, a local Rmax parameter would be truly reflective as the protein is recaptured every time and theoretically surface is slightly different at each recapture, possibly producing slightly different capture each time. Kinetic Parameters (KD, kd and kₐ) were calculated for all the humanised anti-TnMUC1 scFv proteins.

[3] = biological target: T2, TnMUC1 peptide (fully glycosylated), …; assay: SPR (Biacore T200), peptide 36-2 on CAP chip, scFv as analyte, 1:1 fit; single run
Protocol: as §2, §3, §4

[4] = biological target: T3, MUC1 peptide (non-glycosylated), biotinylated (N-terminal Biotin-PEG2; C-terminal amide); assay: SPR (Biacore T200): biotinylated peptide captured on CAP chip, scFv as analyte
T3 construct: also called 36-4; 7-36-4
T3 peptide: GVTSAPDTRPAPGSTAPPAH

[5] = biological target: T2, TnMUC1 peptide (fully glycosylated), …; assay: SPR (Biacore T200), peptide 36-2 on CAP chip, scFv as analyte, 1:1 fit; average, restated in nM
Protocol: as §2, §3, §4

[6] = biological target: T1, STnMUC1 peptide, biotinylated; assay: SPR (Biacore T200): biotinylated STnMUC1 peptide (35-1) captured on CAP chip, scFv as analyte
[7] = biological target: T1, STnMUC1 peptide, biotinylated; assay: as above; remark: listed apart in the source
Protocol: as §1, §2

[8] = biological target: T4, TnMUC1 peptide 1 (partially glycosylated), biotinylated; assay: SPR (Biacore T200): biotinylated TnMUC1 peptide 1 (96-1) captured on CAP chip, scFv as analyte
T4 construct: also called 96-1; 32A

[9] = biological target: T2, TnMUC1 peptide (fully glycosylated), …; assay: SPR (Biacore T200): biotinylated TnMUC1 peptide batch 65-1 captured on CAP chip, scFv as analyte
[10] = biological target: T1, STnMUC1 peptide, biotinylated; assay: SPR (Biacore T200): biotinylated STnMUC1 peptide (35-1) captured on CAP chip, scFv as analyte, 1:1 fit, average
[11] = biological target: T4, TnMUC1 peptide 1 (partially …); assay: SPR (Biacore T200): biotinylated TnMUC1 peptide 1 (96-1) captured on CAP chip, scFv as analyte, 1:1 fit, average
Protocol: as §2, §3, §4

[12] = biological target: T2, TnMUC1 peptide (fully glycosylated), …; assay: SPR (Biacore T200): biotinylated TnMUC1 peptide batch 65-1 captured on CAP chip, scFv as analyte, 1:1 fit, average
Protocol: as §2, §3, §4

fold lower affinity than the murine 5E5 scFv protein [1]: ~10 fold
Kd [2]: 174 nM
koff [2]: 0.00653 s⁻¹
kon [2]: 37800 M⁻¹ s⁻¹
Kd [3]: 166 nM and 181 nM
koff [3]: 0.00654 s⁻¹ and 0.00652 s⁻¹
kon [3]: 39500 M⁻¹ s⁻¹ and 36100 M⁻¹ s⁻¹
binding result [4]: no binding
Kd [5]: 174 nM
Kd [6]: 445 nM
Kd [7]: 445 nM
koff [7]: 0.00117 s⁻¹
kon [7]: 2630 M⁻¹ s⁻¹
Kd [8]: 231 nM
koff [8]: 0.00635 s⁻¹
kon [8]: 27500 M⁻¹ s⁻¹
Kd [9]: 195 nM
koff [9]: 0.00633 s⁻¹
kon [9]: 32600 M⁻¹ s⁻¹
Kd [10]: 445 nM
koff [10]: 0.00117 s⁻¹
kon [10]: 2630 M⁻¹ s⁻¹
Kd [11]: 231 nM
koff [11]: 0.00635 s⁻¹
kon [11]: 27500 M⁻¹ s⁻¹
Kd [12]: 195 nM
koff [12]: 0.00633 s⁻¹
kon [12]: 32600 M⁻¹ s⁻¹
B1: humanised anti-TnMUC1 scFv protein 13P16 (97A), L2-H3 (scFv)
scFv: DIVMTQSPDSLAVSLGERATINCKSSQSLLNSGDQKNYLTWYQQKPGQPPKLLIFWASTRESGVPDRFSGSGSGTDFTLTISSLQAEDVAVYYCQNDYSYPLTFGQGTKLEIKGGGGSGGGGSGGGGSGGGGSQVQLVQSGAEVKKPGSSVKVSCKASGYTFTDHAIHWVRQAPGQGLEWMGHFSPGNTDIKYNDKFKGRVTITADKSTSTAYMELSSLRSEDTAVYYCKTSTFFFDYWGQGTTVTVSSAAAHHHHHH
notes: Supernatant of construct 6D16 in the Octet assay; purified 13P16 elsewhere. scFv of CAR MB024; also called 6D16
